{
  "source": "paper PMC8126837",
  "about": "(2021)",
  "binders": {"B1": {"name": "WNb 7 (VHH)", "VHH": "QVQLQESGGGLVQPGGSLRLSCAAPGFTFSSYAMGWFRQVPGKGLEWVSGIYSDGSTYYADSVKGRFTISRDNAKNTVYLQMNSLKPEDTAVYYCAKDRLEGSSWPERDFGSWGQGTQVTVSS"}, "B2": {"name": "WNb 41 (VHH)", "VHH": "QVQLQESGGGLVQPGGSLRLSCAVSGFTLDYYAIGWFRQAPGKEREGVSCISSSGGSTNYADSVKGRFTISRDNAKNTVYLQMNGLKPEDTAVYYCAAIAATYYSGSYYYQCPHDGMDYWGKGTQVTVSS"}, "B3": {"name": "WNb 67 (VHH)", "VHH": "B2 VHH with K76T, G85S, S105G, D115Y"}, "B4": {"name": "WNb 15 (VHH)", "VHH": "B1 VHH with P25S, A33L, S56G, K97T, L100M"}, "B5": {"name": "WNbFc 15 (Fc fusion)", "chain": "B1 VHH with P25S, A33L, S56G, K97T, L100M"}, "B6": {"name": "WNb 50 (VHH)", "VHH": "B1 VHH with P25S, K97A, L100M, E101A, S104R"}, "B7": {"name": "WNb 23 (VHH)", "VHH": "QVQLQESGGGLVQPGGSLRLSCAASGFTFKDYAMAWARQVPGKGLEWVSGIYSDGNTYYADSVKGRFTISRDNAKNTVYLRMNSLKPEDTAVYYCATERHPQGAADFGSWGQGTQVTVSS"}, "B8": {"name": "WNbFc 7 (Fc fusion)", "chain": "B1 VHH"}, "B9": {"name": "WNb 36 (VHH)", "VHH": "QVQLQESGGGLVQPGGSLRLSCAVSGFTLDYYAIGWFRQAPGKEREGVSCISNSGGNTKYADSVKGRFTTSVDNAQNTVYLLMNSLEPEDTAVYYCAAIAATYYSGTYYYQCPHYGMDYWGKGTQVTVSS"}, "B10": {"name": "WNbFc 36 (Fc fusion)", "chain": "B9 VHH"}, "B11": {"name": "WNb 19 (VHH)", "VHH": "QVQLQESGGGLVQPGGSLRLSCAASGSMFSINVMGWYRQASGKQRELVAGITRDGATNYSDSVKGRFTISGDNAKNTVYLQMNSLKPEDTAVYYCNTNVDSVWGSRIDYFGQGTQVTVSS"}, "B12": {"name": "WNb 2 (VHH)", "VHH": "B2 VHH with S57N, N59K, I70A, V79F, G85S, Y110F"}, "B13": {"name": "WNb 53 (VHH)", "VHH": "B1 VHH with P25S, A33L, F37A, S49A, T68I, L100M, G102D, S104T"}, "B14": {"name": "WNb 10 (VHH)", "VHH": "B1 VHH with P25S, S30R, S31R, A33L, F37A, L100M, E101D, S104T"}, "B15": {"name": "WNbFc 2 (Fc fusion)", "chain": "B2 VHH with S57N, N59K, I70A, V79F, G85S, Y110F"}},
  "note": "Changes are numbered by the printed parent chain.",
  "data": [
    {"biological_target": "T1, SARS-CoV-2 receptor-binding domain (RBD), wild type (SARS-CoV-2, UniProt P0DTC2 331-527)", "assay": "BLI", "units": {"Kd": "nM"}, "values": [
      {"binder": "B1", "Kd": 0.26},
      {"binder": "B2", "Kd": 0.55},
      {"binder": "B3", "Kd": 0.61},
      {"binder": "B4", "Kd": 0.14},
      {"binder": "B5", "Kd": 0.25},
      {"binder": "B6", "Kd": 0.63},
      {"binder": "B7", "Kd": 9.03},
      {"binder": "B8", "Kd": 0.35},
      {"binder": "B9", "Kd": 0.43},
      {"binder": "B10", "Kd": 0.36},
      {"binder": "B11", "Kd": 0.46},
      {"binder": "B12", "Kd": 0.36},
      {"binder": "B13", "Kd": 0.64},
      {"binder": "B14", "Kd": 0.68}
    ]},
    {"biological_target": "T1, SARS-CoV-2 receptor-binding domain …", "assay": "BLI", "remark": "another data set of the same source", "units": {"koff": "s⁻¹"}, "values": [
      {"binder": "B1", "koff": "3.19e-05"},
      {"binder": "B2", "koff": 0.000104},
      {"binder": "B3", "koff": 0.000212},
      {"binder": "B4", "koff": "3.05e-05"},
      {"binder": "B6", "koff": 0.00013},
      {"binder": "B7", "koff": 0.00245},
      {"binder": "B9", "koff": 0.000127},
      {"binder": "B11", "koff": 0.000107},
      {"binder": "B12", "koff": "7.34e-05"},
      {"binder": "B13", "koff": 0.00013},
      {"binder": "B14", "koff": "9.64e-05"}
    ]},
    {"biological_target": "T1, SARS-CoV-2 receptor-binding domain …", "assay": "BLI", "remark": "another data set of the same source", "units": {"Kd": "nM"}, "values": [
      {"binder": "B5", "Kd": 0.44},
      {"binder": "B8", "Kd": 0.7},
      {"binder": "B10", "Kd": 0.61},
      {"binder": "B15", "Kd": 0.59}
    ]},
    {"biological_target": "T2, SARS-CoV-2 spike (recombinant, used in bio-layer interferometry) (SARS-CoV-2, UniProt P0DTC2)", "assay": "BLI", "units": {"Kd": "nM"}, "values": [
      {"binder": "B5", "Kd": "< 0.01"},
      {"binder": "B8", "Kd": "< 0.01"},
      {"binder": "B10", "Kd": "< 0.01"},
      {"binder": "B15", "Kd": "< 0.01"}
    ]},
    {"biological_target": "SARS2 S1", "assay": "not given", "units": {"EC50": "nM", "IC50": "nM"}, "values": [
      {"binder": "B5", "EC50": 1.6, "IC50": 1.07},
      {"binder": "B8", "EC50": 0.46, "IC50": 0.45},
      {"binder": "B10", "EC50": 0.63, "IC50": 0.32},
      {"binder": "B15", "EC50": 1.17, "IC50": 0.66}
    ]},
    {"biological_target": "SARS-CoV S1 subunit (SARS-CoV, UniProt P59594 14-667)", "assay": "not given", "units": {"EC50": "nM"}, "values": [
      {"binder": "B5", "EC50": 1.69},
      {"binder": "B8", "EC50": 1.12}
    ]},
    {"biological_target": "T1, SARS-CoV-2 receptor-binding domain …", "assay": "BLI", "remark": "another data set of the same source", "units": {"koff": "s⁻¹"}, "values": [
      {"binder": "B5", "koff": 0.000128},
      {"binder": "B8", "koff": 0.000191},
      {"binder": "B10", "koff": 0.000202},
      {"binder": "B15", "koff": 0.000158}
    ]},
    {"biological_target": "T2, SARS-CoV-2 spike (recombinant, used in …)", "assay": "BLI", "remark": "another data set of the same source", "units": {"koff": "s⁻¹"}, "values": [
      {"binder": "B5", "koff": "< 1e-06"},
      {"binder": "B8", "koff": "< 1e-06"},
      {"binder": "B10", "koff": "< 1e-06"},
      {"binder": "B15", "koff": "< 1e-06"}
    ]}
  ]
}
